The record followed here is patent US7892733.

In experiment [1] the target is full-length human G-CSF receptor (human) (UniProt Q99062). Kind of experiment: cell-based or functional assay.
Experiment [2] has as its target endogenous IL-3 receptors of BaF3 cells (UniProt P26952). Description: cell-based or functional assay.
UniProt P26952, sequence (P26952 17-396): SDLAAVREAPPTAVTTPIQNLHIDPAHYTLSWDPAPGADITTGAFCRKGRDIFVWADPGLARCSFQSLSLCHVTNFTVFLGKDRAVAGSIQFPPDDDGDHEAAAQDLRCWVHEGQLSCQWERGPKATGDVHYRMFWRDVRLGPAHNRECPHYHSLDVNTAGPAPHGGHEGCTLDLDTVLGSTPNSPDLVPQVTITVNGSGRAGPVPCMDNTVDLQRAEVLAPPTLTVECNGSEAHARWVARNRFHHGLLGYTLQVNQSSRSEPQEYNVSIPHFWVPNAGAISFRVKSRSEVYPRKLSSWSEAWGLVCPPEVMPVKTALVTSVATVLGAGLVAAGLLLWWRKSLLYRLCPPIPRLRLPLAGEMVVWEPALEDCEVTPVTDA

UniProt Q99062, sequence (Q99062 25-836): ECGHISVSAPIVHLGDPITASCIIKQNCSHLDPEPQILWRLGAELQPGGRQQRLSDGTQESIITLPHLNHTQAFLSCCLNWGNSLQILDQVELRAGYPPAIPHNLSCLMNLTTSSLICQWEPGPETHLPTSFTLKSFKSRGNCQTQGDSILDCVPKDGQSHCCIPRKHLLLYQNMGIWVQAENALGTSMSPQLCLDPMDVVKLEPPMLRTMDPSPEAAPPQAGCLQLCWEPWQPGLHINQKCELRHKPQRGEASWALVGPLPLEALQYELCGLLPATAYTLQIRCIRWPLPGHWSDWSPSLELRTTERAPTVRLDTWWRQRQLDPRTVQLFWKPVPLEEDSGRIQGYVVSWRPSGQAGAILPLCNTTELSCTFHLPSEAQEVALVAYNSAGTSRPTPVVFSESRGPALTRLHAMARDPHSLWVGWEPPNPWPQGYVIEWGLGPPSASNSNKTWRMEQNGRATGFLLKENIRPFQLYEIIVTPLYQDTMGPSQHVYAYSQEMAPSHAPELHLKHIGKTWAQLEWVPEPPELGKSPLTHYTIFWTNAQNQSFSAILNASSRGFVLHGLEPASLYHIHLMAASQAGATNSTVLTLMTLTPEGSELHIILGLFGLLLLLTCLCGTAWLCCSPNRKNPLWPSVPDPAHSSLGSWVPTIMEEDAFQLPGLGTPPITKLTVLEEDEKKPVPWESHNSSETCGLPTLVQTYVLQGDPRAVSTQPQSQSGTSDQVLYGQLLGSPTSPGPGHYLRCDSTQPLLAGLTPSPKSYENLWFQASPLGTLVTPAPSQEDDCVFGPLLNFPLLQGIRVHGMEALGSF

For the substance G-CSF (ligand), the luminescence output-fold stimulation over background (assay medium alone); luciferase reporter, HuG-CSFR-luc (clone 40) cells, 0.8 ng/mL and 5.0 ng/mL GCSF, four hours in experiment [1] was determined as 3 fold.
Regarding “recombinant murine interleukin-3 (from UniProt P01586 33-166) (ligand)”, in experiment [2], the PLAP reporter activity (4-MU fluorescence 360/460 nm), +IL-3, - filtration; 3X-RS-pGTPLAP in BaF3, 25 ng/ml rMuIL-3 is 85; the PLAP reporter activity, +IL-3, + filtration; 3X-RS-pGTPLAP in BaF3 came out at 82; the PLAP reporter activity, +IL-3, + filtration; 6X-RS-pGTPLAP in BaF3 was 177; the PLAP reporter activity, +IL-3, + filtration; 9X-RS-pGTPLAP in BaF3 was 257. In experiment [2], the PLAP reporter activity, +IL-3, + filtration; 12X-RS-pGTPLAP in BaF3 turned out to be 384; the PLAP reporter activity, +IL-3, + filtration; Greater than 12X-RS-pGTPLAP in BaF3 worked out at 389; the PLAP reporter activity, +IL-3, - filtration; 6X-RS-pGTPLAP in BaF3 stood at 175; the PLAP reporter activity, +IL-3, - filtration; 9X-RS-pGTPLAP in BaF3 stood at 276. In experiment [2], the PLAP reporter activity, +IL-3, - filtration; 12X-RS-pGTPLAP in BaF3 amounted to 402; the PLAP reporter activity, +IL-3, - filtration; Greater than 12X-RS-pGTPLAP in BaF3 is 384; the PLAP reporter activity, +IL-3, average - baseline; 3X-RS-pGTPLAP in BaF3 came to 70; the PLAP reporter activity, +IL-3, average - baseline; 6X-RS-pGTPLAP in BaF3 came to 160. For the same substance, in experiment [2], the PLAP reporter activity, +IL-3, average - baseline; 9X-RS-pGTPLAP in BaF3 was 250; the PLAP reporter activity, +IL-3, average - baseline; 12X-RS-pGTPLAP in BaF3 was 375; the PLAP reporter activity, +IL-3, average - baseline; Greater than 12X-RS-pGTPLAP in BaF3 was found to be 370; the fold stimulation (avg +IL-3 / avg -IL-3); 3X-RS-pGTPLAP in BaF3 came out at 3.5 fold. In experiment [2], this substance had a fold stimulation (avg +IL-3 / avg -IL-3); 6X-RS-pGTPLAP in BaF3 of 5.4 fold, a fold stimulation (avg +IL-3 / avg -IL-3); 9X-RS-pGTPLAP in BaF3 of 6.2 fold, a fold stimulation (avg +IL-3 / avg -IL-3); 12X-RS-pGTPLAP in BaF3 of 8.4 fold and a fold stimulation (avg +IL-3 / avg -IL-3); Greater than 12X-RS-pGTPLAP in BaF3 of 11.2 fold.
